Source: the supplement of paper PMC9112550, “Optimization of the antimicrobial peptide Bac7 by deep mutational scanning” (BMC Biology, 2022)
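Further: peptides expressed intracellularly from a pBAD plasmid library in pooled LB shake-flask culture, induced with 0.3% L-arabinose, DNA abundance read by NGS, three biological replicates, DESeq2 with apeglm shrinkage.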

The sequences below were run on Escherichia coli TOP10 (assay: shrunken log2 fold change of peptide-encoding DNA abundance (4.5 h post-induction vs induction); higher = less antimicrobial activity (less host growth inhibition)). Conditions: time post-induction: 4.5 h; library: site-saturation at positions 5, 18, 19, 20.
RRIRMRPPRLPRPRPRPLMDPRP was tested, and the “shrunken log2 fold change” value was 1.24. RRIRMRPPRLPRPRPRPLMHPRP was tested, and the “shrunken log2 fold change” value was 0.341. RRIRMRPPRLPRPRPRPLNAPRP was tested, and the “shrunken log2 fold change” value was 0.35. In the case of RRIRMRPPRLPRPRPRPLPAPRP, the “shrunken log2 fold change” value was 2.13. For RRIRMRPPRLPRPRPRPLPTPRP, the “shrunken log2 fold change” value was 1.36. With RRIRMRPPRLPRPRPRPLQHPRP the “shrunken log2 fold change” value was 1.47. RRIRMRPPRLPRPRPRPLRAPRP was tested, and the “shrunken log2 fold change” value was 2.97. In the case of RRIRMRPPRLPRPRPRPLRNPRP, the “shrunken log2 fold change” value was 1.17. With RRIRMRPPRLPRPRPRPLSMPRP the “shrunken log2 fold change” value was -0.289. With RRIRMRPPRLPRPRPRPLTEPRP the “shrunken log2 fold change” value was 1.31. With RRIRMRPPRLPRPRPRPLTYPRP the “shrunken log2 fold change” value was -0.0782. RRIRMRPPRLPRPRPRPLVGPRP was tested, and the “shrunken log2 fold change” value was 0.73. RRIRMRPPRLPRPRPRPLVKPRP was tested, and the “shrunken log2 fold change” value was -0.174. For RRIRMRPPRLPRPRPRPLYGPRP, the “shrunken log2 fold change” value was -0.281. For RRIRMRPPRLPRPRPRPMAPPRP, the “shrunken log2 fold change” value was 0.218. With RRIRMRPPRLPRPRPRPMCKPRP the “shrunken log2 fold change” value was 0.00898. In the case of RRIRMRPPRLPRPRPRPMEMPRP, the “shrunken log2 fold change” value was 0.515. RRIRMRPPRLPRPRPRPMFDPRP was tested, and the “shrunken log2 fold change” value was -0.328. For RRIRMRPPRLPRPRPRPMHAPRP, the “shrunken log2 fold change” value was 0.327. RRIRMRPPRLPRPRPRPMHFPRP was tested, and the “shrunken log2 fold change” value was -0.0157. In the case of RRIRMRPPRLPRPRPRPMHHPRP, the “shrunken log2 fold change” value was 0.0123. For RRIRMRPPRLPRPRPRPMIRPRP, the “shrunken log2 fold change” value was 0.00211. With RRIRMRPPRLPRPRPRPMKHPRP the “shrunken log2 fold change” value was 0.0546. In the case of RRIRMRPPRLPRPRPRPMLMPRP, the “shrunken log2 fold change” value was 0.0323. In the case of RRIRMRPPRLPRPRPRPMMGPRP, the “shrunken log2 fold change” value was 0.0255. With RRIRMRPPRLPRPRPRPMNLPRP the “shrunken log2 fold change” value was 0.11. For RRIRMRPPRLPRPRPRPMNYPRP, the “shrunken log2 fold change” value was -0.082. For RRIRMRPPRLPRPRPRPMPHPRP, the “shrunken log2 fold change” value was 0.161. For RRIRMRPPRLPRPRPRPMPIPRP, the “shrunken log2 fold change” value was 0.0625. In the case of RRIRMRPPRLPRPRPRPMPRPRP, the “shrunken log2 fold change” value was 0.561. RRIRMRPPRLPRPRPRPMPTPRP was tested, and the “shrunken log2 fold change” value was 2.8. In the case of RRIRMRPPRLPRPRPRPMPVPRP, the “shrunken log2 fold change” value was 0.064. With RRIRMRPPRLPRPRPRPMQPPRP the “shrunken log2 fold change” value was -0.000921. With RRIRMRPPRLPRPRPRPMQTPRP the “shrunken log2 fold change” value was -0.00202. In the case of RRIRMRPPRLPRPRPRPMRHPRP, the “shrunken log2 fold change” value was 0.452. With RRIRMRPPRLPRPRPRPMSEPRP the “shrunken log2 fold change” value was 0.102. RRIRMRPPRLPRPRPRPMSNPRP was tested, and the “shrunken log2 fold change” value was 0.0851. With RRIRMRPPRLPRPRPRPMTGPRP the “shrunken log2 fold change” value was 0.0472. For RRIRMRPPRLPRPRPRPMTMPRP, the “shrunken log2 fold change” value was 0.178. With RRIRMRPPRLPRPRPRPMTRPRP the “shrunken log2 fold change” value was 0.118. With RRIRMRPPRLPRPRPRPMVDPRP the “shrunken log2 fold change” value was 0.0184. With RRIRMRPPRLPRPRPRPMWWPRP the “shrunken log2 fold change” value was -0.00447. In the case of RRIRMRPPRLPRPRPRPMYWPRP, the “shrunken log2 fold change” value was -0.169. For RRIRMRPPRLPRPRPRPNAMPRP, the “shrunken log2 fold change” value was 0.16. With RRIRMRPPRLPRPRPRPNAQPRP the “shrunken log2 fold change” value was 0.43. With RRIRMRPPRLPRPRPRPNARPRP the “shrunken log2 fold change” value was 0.323. With RRIRMRPPRLPRPRPRPNCAPRP the “shrunken log2 fold change” value was 0.317. In the case of RRIRMRPPRLPRPRPRPNFFPRP, the “shrunken log2 fold change” value was 0.128. For RRIRMRPPRLPRPRPRPNKVPRP, the “shrunken log2 fold change” value was 0.0418. In the case of RRIRMRPPRLPRPRPRPNMCPRP, the “shrunken log2 fold change” value was 0.0492. With RRIRMRPPRLPRPRPRPNMMPRP the “shrunken log2 fold change” value was -0.0235. RRIRMRPPRLPRPRPRPNNMPRP was tested, and the “shrunken log2 fold change” value was -0.309. RRIRMRPPRLPRPRPRPNPLPRP was tested, and the “shrunken log2 fold change” value was 0.567. In the case of RRIRMRPPRLPRPRPRPNQFPRP, the “shrunken log2 fold change” value was -0.0124. For RRIRMRPPRLPRPRPRPNQIPRP, the “shrunken log2 fold change” value was 0.283. In the case of RRIRMRPPRLPRPRPRPNRMPRP, the “shrunken log2 fold change” value was -0.189. RRIRMRPPRLPRPRPRPNSMPRP was tested, and the “shrunken log2 fold change” value was -0.22. In the case of RRIRMRPPRLPRPRPRPNVPPRP, the “shrunken log2 fold change” value was 0.0131. RRIRMRPPRLPRPRPRPNYYPRP was tested, and the “shrunken log2 fold change” value was -0.576. With RRIRMRPPRLPRPRPRPPALPRP the “shrunken log2 fold change” value was 1.13. For RRIRMRPPRLPRPRPRPPATPRP, the “shrunken log2 fold change” value was 2.56. With RRIRMRPPRLPRPRPRPPCKPRP the “shrunken log2 fold change” value was -0.0348. With RRIRMRPPRLPRPRPRPPCYPRP the “shrunken log2 fold change” value was -0.0907. For RRIRMRPPRLPRPRPRPPDCPRP, the “shrunken log2 fold change” value was 0.865. For RRIRMRPPRLPRPRPRPPFDPRP, the “shrunken log2 fold change” value was 0.873. In the case of RRIRMRPPRLPRPRPRPPFKPRP, the “shrunken log2 fold change” value was 0.173. For RRIRMRPPRLPRPRPRPPFQPRP, the “shrunken log2 fold change” value was 0.202. RRIRMRPPRLPRPRPRPPFSPRP was tested, and the “shrunken log2 fold change” value was 0.239. RRIRMRPPRLPRPRPRPPGFPRP was tested, and the “shrunken log2 fold change” value was 0.619. For RRIRMRPPRLPRPRPRPPIAPRP, the “shrunken log2 fold change” value was 0.826. With RRIRMRPPRLPRPRPRPPIFPRP the “shrunken log2 fold change” value was 0.00125. With RRIRMRPPRLPRPRPRPPLFPRP the “shrunken log2 fold change” value was 0.919. For RRIRMRPPRLPRPRPRPPLHPRP, the “shrunken log2 fold change” value was 0.691. RRIRMRPPRLPRPRPRPPLMPRP was tested, and the “shrunken log2 fold change” value was 1.34. For RRIRMRPPRLPRPRPRPPLYPRP, the “shrunken log2 fold change” value was 0.445.
